Series [1] concerns the target T1, hMEX3B KH1 WT (Homo sapiens, UniProt Q6ZN04 56-144).
T1 sequence: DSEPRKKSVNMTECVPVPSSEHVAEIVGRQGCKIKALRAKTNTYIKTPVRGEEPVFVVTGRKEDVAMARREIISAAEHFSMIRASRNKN
The series is described as follows: ITC; N 0.89; ITC at 298 K, protein injected into RNA, both dialyzed in the same buffer (composition not in the material; purification SEC buffer 2 M NaCl, 20 mM Tris pH 7.5); NMR at 298 K, 0.1 mM protein. Particulars: protein: recombinant; tags: modified pET28a without thrombin site (His tag likely retained). (In ITC the heat of successive injections is recorded.)

The target in series [2] is T2, hMEX3B KH1/2 WT (Homo sapiens, UniProt Q6ZN04 56-230).
T2 sequence: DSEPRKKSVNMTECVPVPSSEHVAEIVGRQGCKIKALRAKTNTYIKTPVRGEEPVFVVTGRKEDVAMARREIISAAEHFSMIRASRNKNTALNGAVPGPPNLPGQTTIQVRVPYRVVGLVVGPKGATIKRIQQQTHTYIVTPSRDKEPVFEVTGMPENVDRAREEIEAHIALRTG
The series is described as follows: ITC; ITC at 298 K, protein injected into RNA, both dialyzed in the same buffer (composition not in the material; purification SEC buffer 2 M NaCl, 20 mM Tris pH 7.5); NMR at 298 K, 0.1 mM protein. As to conditions: protein: recombinant; tags: 6xHis-SUMO cleaved (ULP1).

Series [3] deals with T3, hMEX3B KH1/2 (TR4A) (Homo sapiens, UniProt Q6ZN04 56-230, T102A;R105A;T196A;R199A).
T3 sequence: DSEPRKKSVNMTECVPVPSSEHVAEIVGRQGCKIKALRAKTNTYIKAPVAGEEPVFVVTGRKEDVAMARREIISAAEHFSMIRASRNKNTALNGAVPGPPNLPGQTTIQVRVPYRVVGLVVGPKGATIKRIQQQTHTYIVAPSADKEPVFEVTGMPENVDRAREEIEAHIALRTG
Described as above. As to conditions: protein: recombinant; tags: 6xHis-SUMO cleaved (ULP1).

The target in series [4] is T4, hMEX3B KH1/2 (G4D) (Homo sapiens, UniProt Q6ZN04 56-230, G83D;G86D;G177D;G180D).
T4 sequence: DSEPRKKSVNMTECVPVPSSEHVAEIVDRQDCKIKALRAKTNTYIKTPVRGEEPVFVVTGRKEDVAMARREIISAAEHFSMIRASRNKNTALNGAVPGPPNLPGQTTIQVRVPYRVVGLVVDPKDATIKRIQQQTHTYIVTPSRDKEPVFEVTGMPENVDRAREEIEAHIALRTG
The series is described as above. Particulars: protein: recombinant; tags: 6xHis-SUMO cleaved (ULP1).

For series [5], the target named is T5, hMEX3B KH1/2 (G83D/G86D) (Homo sapiens, UniProt Q6ZN04 56-230, G83D;G86D).
T5 sequence: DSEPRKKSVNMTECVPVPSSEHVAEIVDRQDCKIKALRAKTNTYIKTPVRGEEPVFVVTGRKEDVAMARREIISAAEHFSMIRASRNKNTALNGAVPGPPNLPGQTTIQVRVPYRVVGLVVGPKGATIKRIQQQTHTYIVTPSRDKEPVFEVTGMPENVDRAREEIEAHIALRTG
The series is described as follows: ITC; N 0.67; ITC at 298 K, protein injected into RNA, both dialyzed in the same buffer (composition not in the material; purification SEC buffer 2 M NaCl, 20 mM Tris pH 7.5); NMR at 298 K, 0.1 mM protein. As to conditions: protein: recombinant; tags: 6xHis-SUMO cleaved (ULP1).

The target of series [6] is T6, hMEX3B KH1/2 (T196A/R199A) (Homo sapiens, UniProt Q6ZN04 56-230, T196A;R199A).
T6 sequence: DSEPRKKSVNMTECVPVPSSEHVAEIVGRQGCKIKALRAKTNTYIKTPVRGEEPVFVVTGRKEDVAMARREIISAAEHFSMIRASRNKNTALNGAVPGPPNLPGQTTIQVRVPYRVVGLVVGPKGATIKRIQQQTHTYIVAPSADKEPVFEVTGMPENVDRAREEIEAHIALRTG
Put plainly: ITC; N 0.68; ITC at 298 K, protein injected into RNA, both dialyzed in the same buffer (composition not in the material; purification SEC buffer 2 M NaCl, 20 mM Tris pH 7.5); NMR at 298 K, 0.1 mM protein. As to conditions: protein: recombinant; tags: 6xHis-SUMO cleaved (ULP1).

The target in series [7] is T7, hMEX3B KH1/2 (T102A/R105A) (Homo sapiens, UniProt Q6ZN04 56-230, T102A;R105A).
T7 sequence: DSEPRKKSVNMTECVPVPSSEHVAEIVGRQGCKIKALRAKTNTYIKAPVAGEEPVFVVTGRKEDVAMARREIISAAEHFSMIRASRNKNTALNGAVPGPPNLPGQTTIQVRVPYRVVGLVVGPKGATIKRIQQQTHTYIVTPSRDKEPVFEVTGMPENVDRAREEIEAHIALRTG
Put plainly: ITC; N 0.79; ITC at 298 K, protein injected into RNA, both dialyzed in the same buffer (composition not in the material; purification SEC buffer 2 M NaCl, 20 mM Tris pH 7.5); NMR at 298 K, 0.1 mM protein. As to conditions: protein: recombinant; tags: 6xHis-SUMO cleaved (ULP1).

The target in series [8] is T8, hMEX3B KH1/2 (G177D/G180D) (Homo sapiens, UniProt Q6ZN04 56-230, G177D;G180D).
T8 sequence: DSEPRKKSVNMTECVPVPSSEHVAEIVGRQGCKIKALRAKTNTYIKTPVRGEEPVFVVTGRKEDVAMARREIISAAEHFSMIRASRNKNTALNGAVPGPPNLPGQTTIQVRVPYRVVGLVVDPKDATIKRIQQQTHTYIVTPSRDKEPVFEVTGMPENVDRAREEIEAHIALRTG
The series is described as follows: ITC; N 0.89; ITC at 298 K, protein injected into RNA, both dialyzed in the same buffer (composition not in the material; purification SEC buffer 2 M NaCl, 20 mM Tris pH 7.5); NMR at 298 K, 0.1 mM protein. As to conditions: protein: recombinant; tags: 6xHis-SUMO cleaved (ULP1).

Series [9] concerns the target T2, hMEX3B KH1/2 WT. The series is described as follows: ITC; N 0.91; ITC at 298 K, protein injected into RNA, both dialyzed in the same buffer (composition not in the material; purification SEC buffer 2 M NaCl, 20 mM Tris pH 7.5); NMR at 298 K, 0.1 mM protein. Particulars: protein: recombinant; tags: 6xHis-SUMO cleaved (ULP1).
The target of series [10] is T9, hMEX3B KH2 WT (Homo sapiens, UniProt Q6ZN04 156-230).
T9 sequence: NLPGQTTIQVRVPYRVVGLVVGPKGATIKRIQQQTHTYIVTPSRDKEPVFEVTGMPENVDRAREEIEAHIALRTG
The series is described as follows: ITC; N 1.79; ITC at 298 K, protein injected into RNA, both dialyzed in the same buffer (composition not in the material; purification SEC buffer 2 M NaCl, 20 mM Tris pH 7.5); NMR at 298 K, 0.1 mM protein. Particulars: protein: recombinant; tags: modified pET28a without thrombin site (His tag likely retained).

Series [11] concerns the target T1, hMEX3B KH1 WT. Put plainly: ITC; N 1.91; ITC at 298 K, protein injected into RNA, both dialyzed in the same buffer (composition not in the material; purification SEC buffer 2 M NaCl, 20 mM Tris pH 7.5); NMR at 298 K, 0.1 mM protein. As to conditions: protein: recombinant; tags: modified pET28a without thrombin site (His tag likely retained).
Series [12] has as its target T2, hMEX3B KH1/2 WT. Put plainly: ITC; N 0.94; ITC at 298 K, protein injected into RNA, both dialyzed in the same buffer (composition not in the material; purification SEC buffer 2 M NaCl, 20 mM Tris pH 7.5); NMR at 298 K, 0.1 mM protein. As to conditions: protein: recombinant; tags: 6xHis-SUMO cleaved (ULP1).
For series [13], the target named is T9, hMEX3B KH2 WT. Put plainly: ITC; N 1.02; ITC at 298 K, protein injected into RNA, both dialyzed in the same buffer (composition not in the material; purification SEC buffer 2 M NaCl, 20 mM Tris pH 7.5); NMR at 298 K, 0.1 mM protein. Particulars: protein: recombinant; tags: modified pET28a without thrombin site (His tag likely retained).
Series [14] addresses T2, hMEX3B KH1/2 WT. Put plainly: ITC; N 0.89; ITC at 298 K, protein injected into RNA, both dialyzed in the same buffer (composition not in the material; purification SEC buffer 2 M NaCl, 20 mM Tris pH 7.5); NMR at 298 K, 0.1 mM protein. As to conditions: protein: recombinant; tags: 6xHis-SUMO cleaved (ULP1).
In series [15] the target is T2, hMEX3B KH1/2 WT. Put plainly: ITC; N 0.84; text says larger than 1.11 uM; ITC at 298 K, protein injected into RNA, both dialyzed in the same buffer (composition not in the material; purification SEC buffer 2 M NaCl, 20 mM Tris pH 7.5); NMR at 298 K, 0.1 mM protein. As to conditions: protein: recombinant; tags: 6xHis-SUMO cleaved (ULP1).
Series [16] addresses T2, hMEX3B KH1/2 WT. Put plainly: ITC; N 0.96; ITC at 298 K, protein injected into RNA, both dialyzed in the same buffer (composition not in the material; purification SEC buffer 2 M NaCl, 20 mM Tris pH 7.5); NMR at 298 K, 0.1 mM protein. Particulars: protein: recombinant; tags: 6xHis-SUMO cleaved (ULP1).
Series [17] addresses T1, hMEX3B KH1 WT. Put plainly: ITC; ITC at 298 K, protein injected into RNA, both dialyzed in the same buffer (composition not in the material; purification SEC buffer 2 M NaCl, 20 mM Tris pH 7.5); NMR at 298 K, 0.1 mM protein. Particulars: protein: recombinant; tags: modified pET28a without thrombin site (His tag likely retained).
Series [18] deals with T9, hMEX3B KH2 WT. Described as above. Particulars: protein: recombinant; tags: modified pET28a without thrombin site (His tag likely retained).

Where only a bound is given, the exact number is not on record here.

Consider ten molecules from paper PMC10850505, “Molecular mechanism of specific HLA-A mRNA recognition by the RNA-binding-protein hMEX3B to promote tumor immune escape”.

As usually defined, the Kd is a measure of binding affinity in units of concentration.

With UGUAAC (ssRNA) [6-nt RNA UGUAAC], in series [1], the equilibrium dissociation constant (Kd) came to 10.3 ± 0.61 µM.

On to CCCCCCCCCCCC (ssRNA) [C12 RNA], for which, in series [2], the binding result is “no binding”.

With CUGAGCUGUAAC (ssRNA) [12-nt RNA], the binding result in series [3] and in [4] was “no binding” in each case. For the same molecule, the dissociation constant Kd in series [5] worked out at 10.4 ± 1.29 µM; in series [6] it was 5.98 ± 0.59 µM; in series [7], 2080 ± 290 nM; in [8] it was 7.42 ± 1.32 µM; in [9], 43.6 ± 7.63 nM; in [10] it was 21.7 ± 6.87 µM. Moreover, the Kd in series [11] was 26.2 ± 7.4 µM.

Regarding CUGAGCUGUACC (ssRNA) [12-nt RNA A11C], the dissociation constant Kd in [12] worked out at 890 ± 90 nM.

Take CUGAGC (ssRNA) [6-nt RNA CUGAGC]: the dissociation constant Kd in series [13] is 9.57 ± 0.99 µM.

On to CUGCGCUGUAAC (ssRNA) [12-nt RNA A4C], for which the equilibrium dissociation constant (Kd) in [9] amounted to 2100 ± 310 nM.

Consider CUGAGCUGUCAC (ssRNA) [12-nt RNA A10C], for which the Kd in series [14] was 1580 ± 240 nM.

For the molecule UGUAACCUGAGC (ssRNA) [switched 12-nt RNA], in series [15], the Kd is above 1110 nM.

In the case of CCGAGCUGUAAC (ssRNA) [12-nt RNA U2C], the Kd in [16] came to 720 ± 90 nM.

In the case of CCCCCC (ssRNA) [C6 RNA], the binding result in series [17] and in series [18] was “no binding” throughout.
